Experimental findings from the RNAGym collection of RNA variant scans (doi:10.7554/elife.80360) are described below.

First the molecules themselves.
B1: CPEB3 Ribozyme (parent)
chain: GGGGGCCACAGCAGAAGCGUUCACGUCGCGGCCCCUGUCAGAUUCUGGUGAAUCUGCGAAUUCUGCUGU

The data set covers variants of B1. In words: self-cleavage, relative activity (ratio to wild type); higher = more cleavage; co-transcriptional.
Take GGGGGCCACAGCAGAAGCGUUCACGUCGCGGCCCCUGUCAGAUUCGGUUGAAUCUGCGAAUUCUGCUGU [U46G G48U]: the self-cleavage came to 1.01.
Take GGGGGCCACAGCAGAAGCGUUCACGUCGCGGCCCCUGUCAGAUUCGGCUGAAUCUGCGAAUUCUGCUGU [U46G G48C]: the self-cleavage was 0.994.
As for GGGGGCCACAGCAGAAGCGUUCACGUCGCGGCCCCUGUCAGAUUCGGAUGAAUCUGCGAAUUCUGCUGU [U46G G48A], the self-cleavage was determined as 1.01.
The same measure for GGGGGCCACAGCAGAAGCGUUCACGUCGCGGCCCCUGUCAGAUUCUAGUGAAUCUGCUAAUUCUGCUGU [G47A G58U]: 0.995; for GGGGGCCACAGCAGAAGCGUUCACGUCGCGGCCCCUGUCAGAUUCUAGUGAAUCUCCGAAUUCUGCUGU [G47A G56C]: 0.918.
With GGGGGCCACAGCAGAAGCGUUCACGUCGCGGCCCCUGUCAGAUUCUCGUGAAUCGGCGAAUUCUGCUGU [G47C U55G], the self-cleavage was determined as 0.931.
As to GGGGGCCACAGCAGAAGCGUUCACGUCGCGGCCCCUGUCAGAUUCUCGUGAAUCAGCGAAUUCUGCUGU [G47C U55A], the self-cleavage amounted to 1.03.
Take GGGGGCCACAGCAGAAGCGUUCACGUCGCGGCCCCUGUCAGAUUCGGGUGAAUCUGCGAAUUCUGCCGU [U46G U67C]: the self-cleavage was 0.979.
On to GGGGGCCACAGCAGAAGCGUUCACGUCGCGGCCCCUGUCAGAUUCUCGUGAAUCUGCGACUUCUGCUGU [G47C A60C], for which the self-cleavage is 0.366.
Turning to GGGGGCCACAGCAGAAGCGUUCACGUCGCGGCCCCUGUCAGAUUCUCGUGAAUCUGCGAGUUCUGCUGU [G47C A60G], the self-cleavage came to 1.01.
In the case of GGGGGCCACAGCAGAAGCGUUCACGUCGCGGCCCCUGUCAGAUUCUCGUGGAUCUGCGAAUUCUGCUGU [G47C A51G], the self-cleavage amounted to 1.
Take GGGGGCCACAGCAGAAGCGUUCACGUCGCGGCCCCUGUCAGAUUCUCGUGUAUCUGCGAAUUCUGCUGU [G47C A51U]: the self-cleavage worked out at 1.02.
For GGGGGCCACAGCAGAAGCGUUCACGUCGCGGCCCCUGUCAGAUUCUAGUGAAUCUGCGAAUUCUGCUCU [G47A G68C], the self-cleavage is 1.
Consider GGGGGCCACAGCAGAAGCGUUCACGUCGCGGCCCCUGUCAGAUUCUAGUGAAUCUGCGAAUUCUGAUGU [G47A C66A], for which the self-cleavage was 0.916.
Under GGGGGCCACAGCAGAAGCGUUCACGUCGCGGCCCCUGUCAGAUUCGGGUGAAUCUGCCAAUUCUGCUGU [U46G G58C] stands 0.936; under GGGGGCCACAGCAGAAGCGUUCACGUCGCGGCCCCUGUCAGAUUCGGGUGAAUCUGCAAAUUCUGCUGU [U46G G58A], 0.957.
Regarding GGGGGCCACAGCAGAAGCGUUCACGUCGCGGCCCCUGUCAGAUUCGGGUGACUCUGCGAAUUCUGCUGU [U46G A52C], the self-cleavage turned out to be 0.942.
For GGGGGCCACAGCAGAAGCGUUCACGUCGCGGCCCCUGUCAGAUUCGGGUGAGUCUGCGAAUUCUGCUGU [U46G A52G], the self-cleavage stood at 0.992.
For GGGGGCCACAGCAGAAGCGUUCACGUCGCGGCCCCUGUCAGAUUCCGGGGAAUCUGCGAAUUCUGCUGU [U46C U49G], the self-cleavage is 1.01.
With GGGGGCCACAGCAGAAGCGUUCACGUCGCGGCCCCUGUCAGAUUCUAGUGAAUCUGCGAAUUCUGCAGU [G47A U67A], the self-cleavage is 0.969.
Turning to GGGGGCCACAGCAGAAGCGUUCACGUCGCGGCCCCUGUCAGAUUCGGGUCAAUCUGCGAAUUCUGCUGU [U46G G50C], the self-cleavage was determined as 0.941.
Under GGGGGCCACAGCAGAAGCGUUCACGUCGCGGCCCCUGUCAGAUUCUAGUGAAUCUGCGCAUUCUGCUGU [G47A A59C] stands 0.769; under GGGGGCCACAGCAGAAGCGUUCACGUCGCGGCCCCUGUCAGAUUCUAGUGAAUCUGCGGAUUCUGCUGU [G47A A59G], 0.988; under GGGGGCCACAGCAGAAGCGUUCACGUCGCGGCCCCUGUCAGAUUCCGGUGAAUCUGCGAACUCUGCUGU [U46C U61C], 0.788.
The same measure for GGGGGCCACAGCAGAAGCGUUCACGUCGCGGCCCCUGUCAGAUUCCGGUGAAUCUGCGAAGUCUGCUGU [U46C U61G]: 0.856; for GGGGGCCACAGCAGAAGCGUUCACGUCGCGGCCCCUGUCAGAUUCGGGUGAAUCUACGAAUUCUGCUGU [U46G G56A]: 0.941; for GGGGGCCACAGCAGAAGCGUUCACGUCGCGGCCCCUGUCAGAUUCUCGUGAAUCUACGAAUUCUGCUGU [G47C G56A]: 1.
On to GGGGGCCACAGCAGAAGCGUUCACGUCGCGGCCCCUGUCAGAUUCUAGUGACUCUGCGAAUUCUGCUGU [G47A A52C], for which the self-cleavage came out at 0.993.
GGGGGCCACAGCAGAAGCGUUCACGUCGCGGCCCCUGUCAGAUUCUAGUGAUUCUGCGAAUUCUGCUGU [G47A A52U]: the self-cleavage is 1.01.
Take GGGGGCCACAGCAGAAGCGUUCACGUCGCGGCCCCUGUCAGAUUCGGGUGAAUCUGCGAAUUCUGCUGA [U46G U69A]: the self-cleavage stood at 1.01.
Turning to GGGGGCCACAGCAGAAGCGUUCACGUCGCGGCCCCUGUCAGAUUCGGGUGAAUCUGCGAAUUCUGCUGG [U46G U69G], the self-cleavage stood at 1.04.
GGGGGCCACAGCAGAAGCGUUCACGUCGCGGCCCCUGUCAGAUUCUAGUGAAUCUGCGAAUGCUGCUGU [G47A U62G]: the self-cleavage was determined as 0.959.
Regarding GGGGGCCACAGCAGAAGCGUUCACGUCGCGGCCCCUGUCAGAUUCUAGAGAAUCUGCGAAUUCUGCUGU [G47A U49A], the self-cleavage was 1.01.
With GGGGGCCACAGCAGAAGCGUUCACGUCGCGGCCCCUGUCAGAUUCUAGCGAAUCUGCGAAUUCUGCUGU [G47A U49C], the self-cleavage was 0.975.
Consider GGGGGCCACAGCAGAAGCGUUCACGUCGCGGCCCCUGUCAGAUUCUCGUGAAUCUGCGAACUCUGCUGU [G47C U61C], for which the self-cleavage stood at 0.87.
Regarding GGGGGCCACAGCAGAAGCGUUCACGUCGCGGCCCCUGUCAGAUUCUCGUGAAUCUGCGAAUUCUGUUGU [G47C C66U], the self-cleavage came to 1.
The same measure for GGGGGCCACAGCAGAAGCGUUCACGUCGCGGCCCCUGUCAGAUUCUAUUGAAUCUGCGAAUUCUGCUGU [G47A G48U]: 1.03; for GGGGGCCACAGCAGAAGCGUUCACGUCGCGGCCCCUGUCAGAUUCUAGUGAAUCUGGGAAUUCUGCUGU [G47A C57G]: 0.303.
Consider GGGGGCCACAGCAGAAGCGUUCACGUCGCGGCCCCUGUCAGAUUCUAGUAAAUCUGCGAAUUCUGCUGU [G47A G50A], for which the self-cleavage was 0.959.
